Experimental data from US20240158494A1 (Biogen, published 2024).
Where two headings read alike, the source gives them in different places.

Columns and labels:
[1] = molecular target: T1, cynomolgus monkey transferrin receptor 1 (TfR1), full length, expressed on cells (cynomolgus monkey, UniProt Q5RDH6 1-760 (Pongo abelii entry)); assay: FACS on Ba/F3 cells, Fab supernatant
T1 construct: also called cyno TfR1; cyTfR

[2] = molecular target: T2, human transferrin receptor 1 (TfR1), full length, expressed on cells (human, UniProt P02786 1-760); assay: FACS on Ba/F3 cells, Fab supernatant
T2 construct: also called human TfR1; huTfR

[3] = molecular target: T1, cynomolgus monkey transferrin receptor …; assay: FACS on Ba/F3 cells, Fab supernatant; remark: listed apart in the source
[4] = molecular target: T2, human transferrin receptor 1 (TfR1), …; assay: FACS on Ba/F3 cells, Fab supernatant; remark: listed apart in the source
[5] = molecular target: T3, recombinant cynomolgus monkey TfR1 extracellular domain, His-tagged (cynomolgus monkey, UniProt Q5RDH6 87-760 (Pongo abelii entry)); assay: SPR, TfR1 ECD-His captured, Fab injected, 1:1 fit
T3 construct: also called Cyno TfR1 ECD; cyno TfR1 ECD-His

[6] = molecular target: T4, recombinant human TfR1 extracellular domain, His-tagged (human, UniProt P02786 89-760); assay: SPR, TfR1 ECD-His captured, Fab injected, 1:1 fit
T4 construct: also called Human TfR1 ECD; human TfR1 ECD-His

Row | EC50 [3] [nM] | EC50 [4] [nM] | Binder | also measured
1 |  |  | TfRANTIBODY-B HC-H4C/LC-L2 (C90V) hIgG1Fab′(1C) (Fab, V domains shown, also called ANTIBODY-B H4C/L2(C90V); H4C (C90V)/L2) VH: QSLVESGGGVVQPGRSLRLSCKASGFSFSNSYWICWVRQAPGKGLEWVGCINTDADSTNYASWARGRFTISKTSSTTVYLQMNSLRAEDTAVYYCARQNNVFDPGYNLWGPGTLVTVSS VL: ELVLTQSPSTLSASVGDRVTITCRASQNIGSNLAWYQQKPGKAPKLLIYDASKLESGVPSRFSGSGSGTEFTLTISSLQPDDFATYYCQVTVRGGAYGNAFGGGTKVEIKR | EC50 [1]: 2.2 nM; EC50 [2]: 4.9 nM
2 |  |  | TfRANTIBODY-B HC-H1C/LC-L2 (C90V) hIgG1Fab′(1C) (Fab, V domains shown, also called ANTIBODY-B H1C/L2(C90V)) VH: QSLVESGGGVVQPGRSLRLSCAASGFSFSNSYWICWVRQAPGKGLEWVGCINTDADSTNYADSVKGRFTISKDNSKNTVYLQMNSLRAEDTAVYYCARQNNVFDPGYNLWGQGTLVTVSS VL: ELVLTQSPSTLSASVGDRVTITCRASQNIGSNLAWYQQKPGKAPKLLIYDASKLESGVPSRFSGSGSGTEFTLTISSLQPDDFATYYCQVTVRGGAYGNAFGGGTKVEIKR | EC50 [1]: 2.9 nM; EC50 [2]: 10.7 nM
3 |  |  | TfRANTIBODY-B HC-H3C/LC-L2 (C90S) hIgG1Fab′(1C) (Fab, V domains shown, also called ANTIBODY-B H3C/L2(C90S)) VH: QSLVESGGGVVQPGRSLRLSCAASGFSFSNSYWICWVRQAPGKGLEWVGCINTDADSTNYASWARGRFTISKDNSKNTLYLQMNSLRAEDTAVYYCARQNNVFDPGYNLWGQGTLVTVSS VL: ELVLTQSPSTLSASVGDRVTITCRASQNIGSNLAWYQQKPGKAPKLLIYDASKLESGVPSRFSGSGSGTEFTLTISSLQPDDFATYYCQSTVRGGAYGNAFGGGTKVEIKR | EC50 [1]: 6.2 nM; EC50 [2]: 16.8 nM
4 | > 85 | 18 | TfR1 ANTIBODY-A HC-H0 hIgG1 Fab′(1C)/LC-L0 hKappa (Fab, V domains shown, also called ANTIBODY-A H0/L0) VH: EVQLVESGGGLVQPGGSLRLSCAASGIDFSSSGYMAWVRQAPGKGLEWVGAIYTYSSNTYYAASVKGRFTISRDDSKNSLYLQMNSLKTEDTAVYYCARGTYGYTGYTYTMGYFSLWGQGTLVTVSS VL: DIQMTQSPSTLSASVGDRVTITCQASQNINSYLAWYQQKPGKAPKLLIYRASSLESGVPSRFSGSGSGTEFTLTISSLQPDDFATYYCQSYYYSGSSNYNAFGGGTKVEIKR | 
5 | > 107 | ~19 | TfR1 ANTIBODY-A HC-H0 hIgG1 Fab′(1C)/LC-L1 hKappa (Fab, V domains shown, also called ANTIBODY-A H0/L1) VH: EVQLVESGGGLVQPGGSLRLSCAASGIDFSSSGYMAWVRQAPGKGLEWVGAIYTYSSNTYYAASVKGRFTISRDDSKNSLYLQMNSLKTEDTAVYYCARGTYGYTGYTYTMGYFSLWGQGTLVTVSS VL: DIQMTQSPSTLSASVGDRVTITCQASQNINSYLAWYQQKPGKAPKLLIYRASTLASGVPSRFSGSGSGTEFTLTISSLQPDDFATYYCQSYYYSGSSNYNAFGGGTKVEIKR | 
6 | ~26 | 3.6 | TfR1 ANTIBODY-A HC-H1C hIgG1 Fab′(1C)/LC-L1 hKappa (Fab, V domains shown, also called ANTIBODY-A H1C/L1) VH: QSLVESGGGLVQPGGSLRLSCAASGIDFSSSGYMCWVRQAPGKGLEWVGCIYTYSSNTYYAASVKGRFTISRDDSKNSLYLQMNSLKTEDTAVYYCARGTYGYTGYTYTMGYFSLWGQGTLVTVSS VL: DIQMTQSPSTLSASVGDRVTITCQASQNINSYLAWYQQKPGKAPKLLIYRASTLASGVPSRFSGSGSGTEFTLTISSLQPDDFATYYCQSYYYSGSSNYNAFGGGTKVEIKR | 
7 | > 162 | ~30 | TfR1 ANTIBODY-A HC-H1 hIgG1 Fab′(1C)/LC-L1 hKappa (Fab, V domains shown, also called ANTIBODY-A H1/L1) VH: QSLVESGGGLVQPGGSLRLSCAASGIDFSSSGYMAWVRQAPGKGLEWVGAIYTYSSNTYYAASVKGRFTISRDDSKNSLYLQMNSLKTEDTAVYYCARGTYGYTGYTYTMGYFSLWGQGTLVTVSS VL: DIQMTQSPSTLSASVGDRVTITCQASQNINSYLAWYQQKPGKAPKLLIYRASTLASGVPSRFSGSGSGTEFTLTISSLQPDDFATYYCQSYYYSGSSNYNAFGGGTKVEIKR | 
8 |  | > 70 | TfR1 ANTIBODY-A HC-H0 hIgG1 Fab′(1C)/LC-L2 hKappa (Fab, V domains shown, also called ANTIBODY-A H0/L2) VH: EVQLVESGGGLVQPGGSLRLSCAASGIDFSSSGYMAWVRQAPGKGLEWVGAIYTYSSNTYYAASVKGRFTISRDDSKNSLYLQMNSLKTEDTAVYYCARGTYGYTGYTYTMGYFSLWGQGTLVTVSS VL: ELDMTQSPSTLSASVGDRVTITCQASQNINSYLAWYQQKPGKAPKLLIYRASTLASGVPSRFSGSGSGTEFTLTISSLQPDDFATYYCQSYYYSGSSNYNAFGGGTKVEIKR | 
9 |  | > 74 | TfR1 ANTIBODY-A HC-H1 hIgG1 Fab′(1C)/LC-L2 hKappa (Fab, V domains shown, also called ANTIBODY-A H1/L2) VH: QSLVESGGGLVQPGGSLRLSCAASGIDFSSSGYMAWVRQAPGKGLEWVGAIYTYSSNTYYAASVKGRFTISRDDSKNSLYLQMNSLKTEDTAVYYCARGTYGYTGYTYTMGYFSLWGQGTLVTVSS VL: ELDMTQSPSTLSASVGDRVTITCQASQNINSYLAWYQQKPGKAPKLLIYRASTLASGVPSRFSGSGSGTEFTLTISSLQPDDFATYYCQSYYYSGSSNYNAFGGGTKVEIKR | 
10 | 15.5 | 2.5 | TfR1 ANTIBODY-A HC-H1C hIgG1 Fab′(1C)/LC-L0 hKappa (Fab, V domains shown, also called ANTIBODY-A H1C/L0) VH: QSLVESGGGLVQPGGSLRLSCAASGIDFSSSGYMCWVRQAPGKGLEWVGCIYTYSSNTYYAASVKGRFTISRDDSKNSLYLQMNSLKTEDTAVYYCARGTYGYTGYTYTMGYFSLWGQGTLVTVSS VL: DIQMTQSPSTLSASVGDRVTITCQASQNINSYLAWYQQKPGKAPKLLIYRASSLESGVPSRFSGSGSGTEFTLTISSLQPDDFATYYCQSYYYSGSSNYNAFGGGTKVEIKR | 
11 | > 52 | 6.5 | TfR1 ANTIBODY-A HC-H2 hIgG1 Fab′(1C)/LC-L2 hKappa (Fab, V domains shown, heavy chain derived; also called ANTIBODY-A H2/L2) VH: QSLVESGGGLVQPGGSLRLSCAASGIDFSSSGYMAWVRQAPGKGLEWVGAIYTYSSNTYYAASVKGRFTISKTSSTTVYLQMNSLKTEDTAVYYCARGTYGYTGYTYTMGYFSLWGQGTLVTVSS VL: ELDMTQSPSTLSASVGDRVTITCQASQNINSYLAWYQQKPGKAPKLLIYRASTLASGVPSRFSGSGSGTEFTLTISSLQPDDFATYYCQSYYYSGSSNYNAFGGGTKVEIKR | 
12 | 3.3 | 1.6 | TfR1 ANTIBODY-A HC-H4C hIgG1 Fab′(1C)/LC-L2 hKappa (Fab, V domains shown, also called ANTIBODY-A H4C/L2) VH: QSLVESGGGLVQPGGSLRLSCKASGIDFSSSGYMCWVRQAPGKGLEWVGCIYTYSSNTYYASWAKGRFTISKTSSTTVYLQMNSLKTEDTAVYYCARGTYGYTGYTYTMGYFSLWGPGTLVTVSS VL: ELDMTQSPSTLSASVGDRVTITCQASQNINSYLAWYQQKPGKAPKLLIYRASTLASGVPSRFSGSGSGTEFTLTISSLQPDDFATYYCQSYYYSGSSNYNAFGGGTKVEIKR | Kd [5]: 6.2 nM; koff [5]: 0.0134 s⁻¹; kon [5]: 2.16e+06 M⁻¹ s⁻¹; Kd [6]: 1.6 nM; koff [6]: 0.00148 s⁻¹; kon [6]: 931000 M⁻¹ s⁻¹
13 |  | 3.6 | TfR1 ANTIBODY-A HC-H0C hIgG1 Fab′(1C)/LC-L2 hKappa (Fab, V domains shown, also called ANTIBODY-A H0C/L2) VH: EVQLVESGGGLVQPGGSLRLSCAASGIDFSSSGYMCWVRQAPGKGLEWVGCIYTYSSNTYYAASVKGRFTISRDDSKNSLYLQMNSLKTEDTAVYYCARGTYGYTGYTYTMGYFSLWGQGTLVTVSS VL: ELDMTQSPSTLSASVGDRVTITCQASQNINSYLAWYQQKPGKAPKLLIYRASTLASGVPSRFSGSGSGTEFTLTISSLQPDDFATYYCQSYYYSGSSNYNAFGGGTKVEIKR | 
14 | ~39 | 3.6 | TfR1 ANTIBODY-A HC-H1C hIgG1 Fab′(1C)/LC-L2 hKappa (Fab, V domains shown, also called ANTIBODY-A H1C/L2) VH: QSLVESGGGLVQPGGSLRLSCAASGIDFSSSGYMCWVRQAPGKGLEWVGCIYTYSSNTYYAASVKGRFTISRDDSKNSLYLQMNSLKTEDTAVYYCARGTYGYTGYTYTMGYFSLWGQGTLVTVSS VL: ELDMTQSPSTLSASVGDRVTITCQASQNINSYLAWYQQKPGKAPKLLIYRASTLASGVPSRFSGSGSGTEFTLTISSLQPDDFATYYCQSYYYSGSSNYNAFGGGTKVEIKR | 
15 | > 36 | 4.4 | TfR1 ANTIBODY-A HC-H2 hIgG1 Fab′(1C)/LC-L1 hKappa (Fab, V domains shown, heavy chain derived; also called ANTIBODY-A H2/L1) VH: QSLVESGGGLVQPGGSLRLSCAASGIDFSSSGYMAWVRQAPGKGLEWVGAIYTYSSNTYYAASVKGRFTISKTSSTTVYLQMNSLKTEDTAVYYCARGTYGYTGYTYTMGYFSLWGQGTLVTVSS VL: DIQMTQSPSTLSASVGDRVTITCQASQNINSYLAWYQQKPGKAPKLLIYRASTLASGVPSRFSGSGSGTEFTLTISSLQPDDFATYYCQSYYYSGSSNYNAFGGGTKVEIKR | 
16 | 7.4 | 2.8 | TfR1 ANTIBODY-A HC-H2C hIgG1 Fab′(1C)/LC-L2 hKappa (Fab, V domains shown, also called ANTIBODY-A H2C/L2) VH: QSLVESGGGLVQPGGSLRLSCAASGIDFSSSGYMCWVRQAPGKGLEWVGCIYTYSSNTYYAASVKGRFTISKTSSTTVYLQMNSLKTEDTAVYYCARGTYGYTGYTYTMGYFSLWGQGTLVTVSS VL: ELDMTQSPSTLSASVGDRVTITCQASQNINSYLAWYQQKPGKAPKLLIYRASTLASGVPSRFSGSGSGTEFTLTISSLQPDDFATYYCQSYYYSGSSNYNAFGGGTKVEIKR | Kd [5]: 7.8 nM; koff [5]: 0.0137 s⁻¹; kon [5]: 1.76e+06 M⁻¹ s⁻¹; Kd [6]: 2.2 nM; koff [6]: 0.00213 s⁻¹; kon [6]: 952000 M⁻¹ s⁻¹
17 | > 176 | 25 | TfR1 ANTIBODY-A HC-H1 hIgG1 Fab′(1C)/LC-L0 hKappa (Fab, V domains shown, also called ANTIBODY-A H1/L0) VH: QSLVESGGGLVQPGGSLRLSCAASGIDFSSSGYMAWVRQAPGKGLEWVGAIYTYSSNTYYAASVKGRFTISRDDSKNSLYLQMNSLKTEDTAVYYCARGTYGYTGYTYTMGYFSLWGQGTLVTVSS VL: DIQMTQSPSTLSASVGDRVTITCQASQNINSYLAWYQQKPGKAPKLLIYRASSLESGVPSRFSGSGSGTEFTLTISSLQPDDFATYYCQSYYYSGSSNYNAFGGGTKVEIKR | 
18 | 10.4 | 1.6 | TfR1 ANTIBODY-A HC-H3C hIgG1 Fab′(1C)/LC-L2 hKappa (Fab, V domains shown, also called ANTIBODY-A H3C/L2) VH: QSLVESGGGLVQPGGSLRLSCKASGIDFSSSGYMCWVRQAPGKGLEWVGCIYTYSSNTYYASWAKGRFTISKDSKNSVYLQMNSLKTEDTAVYYCARGTYGYTGYTYTMGYFSLWGPGTLVTVSS VL: ELDMTQSPSTLSASVGDRVTITCQASQNINSYLAWYQQKPGKAPKLLIYRASTLASGVPSRFSGSGSGTEFTLTISSLQPDDFATYYCQSYYYSGSSNYNAFGGGTKVEIKR | Kd [5]: 8.3 nM; koff [5]: 0.0178 s⁻¹; kon [5]: 2.16e+06 M⁻¹ s⁻¹; Kd [6]: 2.4 nM; koff [6]: 0.00215 s⁻¹; kon [6]: 886000 M⁻¹ s⁻¹
